Results reported in patent publication US20120058499A1, “Bioluminescent Detection of Protease Activity” (priority 2010, published 2012).

Molecular target: Ub(1-76)-aminoluciferin (human) (UniProt P0CG48)
Experiment: cell-based or functional assay

fold decrease in limit of detection against Z-RLRGG-amino-luciferin: 1000 fold
Substance: UCHL3 (ubiquitin carboxyl-terminal hydrolase isozyme L3) (from UniProt P15374 1-230) (enzyme)
